Measured values: patent US20080241166A1 (DOMANTIS, published 2008)
Values belong to the binder of their own block, whether it stands above or below them.

Assays:
[1] = molecular target: T1, human TNFR1 (human p55 TNF receptor) (human, UniProt P19438 30-211, limits assumed); test: selection from dAb libraries
T1 construct: also called TNF receptor 1; TNFα receptor
T1 sequence: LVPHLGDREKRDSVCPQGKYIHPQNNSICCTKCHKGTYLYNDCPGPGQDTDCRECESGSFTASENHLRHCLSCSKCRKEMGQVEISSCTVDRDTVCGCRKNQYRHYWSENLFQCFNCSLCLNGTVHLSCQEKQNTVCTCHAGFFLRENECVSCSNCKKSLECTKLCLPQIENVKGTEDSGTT

mouse serum albumin = molecular target: T2, mouse serum albumin (mouse, UniProt P07724 25-608); test: capture ELISA: dAb on protein A, biotinylated MSA, streptavidin HRP
T2 construct: Biotinylated (about 2 biotins per molecule) in the capture ELISA; unlabelled on the CM5 chip; also called MSA; biotinylated MSA
T2 sequence (P07724 25-608 limits assumed): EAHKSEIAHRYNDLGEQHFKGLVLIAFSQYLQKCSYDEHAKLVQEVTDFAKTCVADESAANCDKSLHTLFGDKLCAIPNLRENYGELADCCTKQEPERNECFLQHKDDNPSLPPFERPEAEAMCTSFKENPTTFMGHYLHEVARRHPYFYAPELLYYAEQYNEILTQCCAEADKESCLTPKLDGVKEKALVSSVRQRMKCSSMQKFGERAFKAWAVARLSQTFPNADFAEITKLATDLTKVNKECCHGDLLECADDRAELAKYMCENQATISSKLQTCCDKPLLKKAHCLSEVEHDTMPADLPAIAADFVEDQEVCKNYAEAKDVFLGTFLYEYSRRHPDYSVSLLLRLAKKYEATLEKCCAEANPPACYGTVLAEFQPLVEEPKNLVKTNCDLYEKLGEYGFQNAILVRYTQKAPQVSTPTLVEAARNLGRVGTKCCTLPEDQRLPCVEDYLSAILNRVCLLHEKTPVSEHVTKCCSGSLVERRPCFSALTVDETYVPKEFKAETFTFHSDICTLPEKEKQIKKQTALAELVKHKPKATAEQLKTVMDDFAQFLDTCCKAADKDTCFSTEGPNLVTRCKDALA

[2] = molecular target: EGFR (as used for the KD column of Table 10) (UniProt P00533 25-645, limits assumed); test: method not described
[3] = molecular target: T3, EGFR expressed on A431 cells (UniProt P00533 25-1210, limits assumed); test: EGFR receptor binding assay: inhibition of biotinylated EGF binding to A431 cells; lowest value obtained
T3 construct: whole, on cells

[4] = molecular target: T3, EGFR expressed on A431 cells; test: EGFR receptor binding assay: inhibition of biotinylated EGF binding to A431 cells; highest value obtained
[5] = molecular target: T3, EGFR expressed on A431 cells; test: EGFR receptor binding assay: inhibition of biotinylated EGF binding to A431 cells; average
[6] = molecular target: T3, EGFR expressed on A431 cells; test: cell-based or functional assay

B1: TAR2h-5 VH dAb (other)
VH: EVQLLESGGGLVQPGGSLRLSCAASGFTFDLYNMFWVRQAPGKGLEWVSFISQTGRLTWYADSVKGRFTISRDNSKNTLYLQMNSLRAEDTAVYYCAKTLEDFDYWGQGTLVTVSS
notes: TAR2-5 and TAR2h-5 are used for the same dAb; also called TAR2-5
binding result [1]: binds

B4: DOM16-39-109 (other)
chain: DIQMTQSPTSLSASVGDRVTITCRASQWIGNLLDWYQQKPGEAPKLLIYYASFLQSGVPSRFSGGGFGTDFTLTISSLQPEDFATYYCQQANPAPLTFGQGTKVEIKR
notes: anti-EGFR dAb
Kd [2]: 1.01 nM | IC50 [3]: 0.746 nM | IC50 [4]: 1.47 nM | IC50 [5]: 1.05 nM | KINASE ASSAY IC50, average [6]: 8.69 nM | KINASE ASSAY IC50, highest value [6]: 11.1 nM | KINASE ASSAY IC50, lowest value [6]: 6.82 nM

Other lines, results leading:

binding result (mouse serum albumin): binds
B2: anti-serum albumin VH dAb, clone 36 (other)
VH: EVQLLESGGGLVQPGGSLRLSCAASGFTFWSYQMTWVRQAPGKGLEWVSSISSFGSSTLYADSVKGRFTISRDNSKNTLYLQMNSLRAEDTAVYYCAKGRDHNYSLFDYWGQGTLVTVSS
notes: ranges to be checked

binding result (mouse serum albumin): binds
B3: anti-serum albumin VH dAb, clones 8, 10 (other)
VH: EVQLLESGGGLVQPGGSLRLSCAASGFTFWVYQMDWVRQAPGKGLEWVSSISAFGAKTLYADSVKGRFTISRDNSKNTLYLQMNSLRAEDTAVYYCAKLSGKFDYWGQGTLVTVSS
notes: dAb
